Measured values reported in patent US20230322900A1.

Columns and labels:
[1] = molecular target: pBC0114 BDD FVIII base construct (pcDNA4-FVIII_4-…-Myc-SPATG-His) (human) (UniProt P00451); test: cell-based or functional assay
pBC0149 (human) = pBC0149 (human) (UniProt P00451); test: cell-based or functional assay
[2] = molecular target: FVIII-XTEN-His-Myc, XTEN insertion A1, 40, AG144 (human); test: sandwich ELISA, antibody capture, anti-Myc detection, normalised to anti-His capture
[3] = molecular target: FVIII-XTEN-His-Myc, XTEN insertion A1, 26, AG144 (human); test: as above
[4] = molecular target: FVIII-XTEN-His-Myc, XTEN insertion A1, 40, AE144 (human); test: as above
[5] = molecular target: FVIII-XTEN-His-Myc, XTEN insertion A1, 18, AG144 (human); test: as above
[6] = molecular target: FVIII-XTEN-His-Myc, XTEN insertion A2, 403, AG144 (human); test: as above
[7] = molecular target: FVIII-XTEN-His-Myc, XTEN insertion A1, 18, AE144 (human); test: as above
[8] = molecular target: FVIII-His-Myc (non-XTEN containing FVIII-His-Myc protein) (human); test: as above
[9] = molecular target: FVIII-XTEN-His-Myc, XTEN insertion A2, 403, AE144 (human); test: as above
[10] = molecular target: FVIII-XTEN-His-Myc, XTEN insertion A2, 399, AE144 (human); test: as above
[11] = molecular target: FVIII-XTEN-His-Myc, XTEN insertion A3, 1656, AG144 (human); test: as above
[12] = molecular target: FVIII-XTEN-His-Myc, XTEN insertion A1, 26, AE144 (human); test: as above

Row | Substance | Ratio to Control [1] | Ratio to Control (pBC0149 (human)) | Relative Remaining Activity (pBC0149 (human)) | Concentration on aFVIII/Myc ÷ concentration on aHis/Myc [2] | Concentration on aFVIII/Myc ÷ concentration on aHis/Myc [3] | Concentration on aFVIII/Myc ÷ concentration on aHis/Myc [4] | Concentration on aFVIII/Myc ÷ concentration on aHis/Myc [5] | Concentration on aFVIII/Myc ÷ concentration on aHis/Myc [6] | Concentration on aFVIII/Myc ÷ concentration on aHis/Myc [7] | Concentration on aFVIII/Myc ÷ concentration on aHis/Myc [8] | Concentration on aFVIII/Myc ÷ concentration on aHis/Myc [9] | Concentration on aFVIII/Myc ÷ concentration on aHis/Myc [10] | Concentration on aFVIII/Myc ÷ concentration on aHis/Myc [11] | Concentration on aFVIII/Myc ÷ concentration on aHis/Myc [12]
1 | GMA8008 FVIII inhibitor antibody | 1 | 0.8 | 0.1 |  |  |  |  |  |  |  |  |  |  | 
2 | ESH8 anti-FVIII antibody (American Diagnostica Inc.) |  |  |  | 153% | 147% | 147% | 131% | 129% | 130% | 104% | 141% | 140% | 158% | 87%
3 | GMA-8021 anti-FVIII monoclonal antibody (Green Mountain Antibodies) | 1 | 1.3 | 0.2 | 164% | 157% | 137% | 150% | 104% | 129% | 92% | 103% | 100% | 153% | 155%
